Article PMC4381056

Biological target: T1, MBD3-GFP (methyl-CpG-binding domain protein 3 fused to GFP), O95983
T1 chain: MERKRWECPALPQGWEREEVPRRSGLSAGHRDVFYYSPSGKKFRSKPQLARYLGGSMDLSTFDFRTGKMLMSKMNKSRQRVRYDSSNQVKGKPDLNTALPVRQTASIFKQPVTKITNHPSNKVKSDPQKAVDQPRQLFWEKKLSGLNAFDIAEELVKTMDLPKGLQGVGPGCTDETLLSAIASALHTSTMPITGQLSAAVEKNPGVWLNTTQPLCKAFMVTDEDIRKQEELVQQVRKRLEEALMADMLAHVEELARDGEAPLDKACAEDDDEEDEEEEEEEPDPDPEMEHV
Experiment: photon counting histogram
Conditions: remark: other sources report otherwise

dimer percentage (G1-phase): 84%
dimer percentage (G2-phase): 16%
dimer percentage (S-phase): 48%
B1: MBD3-GFP (methyl-CpG-binding domain protein 3 fused to GFP), O95983 1-291 (natural protein)
chain: T1 chain
